Measurements reported in patent US8840891 (RSR, dated 2014).

Legend:
Experiment in all cases: cell-based or functional assay
[1] = target: wild type human TSHR (human) (UniProt P16473)
[2] = target: TSHR with Lys129 mutated to Alanine (human) (UniProt P16473)
[3] = target: human TSHR (wild type) expressed in CHO cells (human) (UniProt P16473)

## 5C9 IgG (antibody)
[1]
  cyclic AMP; 5C9 0.01 µg/mL + TSH (fmol/cell well): 10500
  cyclic AMP; 5C9 0.1 µg/mL + TSH (fmol/cell well): 2710
  cyclic AMP; 5C9 1.0 µg/mL + TSH (fmol/cell well): 1010
  cyclic AMP; 5C9 10 µg/mL + TSH (fmol/cell well): 548
  cyclic AMP; 5C9 100 µg/mL + TSH (fmol/cell well): 491
  cyclic AMP; 5C9 100 µg/mL only (fmol/cell well): 107
[2]
  Mutated/wild type (%); 5C9 0.01 µg/mL + TSH: 115%
  Mutated/wild type (%); 5C9 0.1 µg/mL + TSH: 488%
  Mutated/wild type (%); 5C9 1.0 µg/mL + TSH: 1270%
  Mutated/wild type (%); 5C9 10 µg/mL + TSH: 2040%
  Mutated/wild type (%); 5C9 100 µg/mL + TSH: 3240%
  Mutated/wild type (%); 5C9 100 µg/mL only: 203%
  cyclic AMP; 5C9 0.01 µg/mL + TSH (fmol/cell well): 12200
  cyclic AMP; 5C9 0.1 µg/mL + TSH (fmol/cell well): 13300
  cyclic AMP; 5C9 1.0 µg/mL + TSH (fmol/cell well): 12800
  cyclic AMP; 5C9 10 µg/mL + TSH (fmol/cell well): 11200
  cyclic AMP; 5C9 100 µg/mL + TSH (fmol/cell well): 15900
  cyclic AMP; 5C9 100 µg/mL only (fmol/cell well): 217
[3]
  % inhibition of TSH stimulated cyclic AMP level; pTSH 3 ng/mL + 1 µg/mL 5C9: 92%
  Cyclic AMP produced; 5C9 0.01 µg/mL + pTSH 3 ng/mL; Experiment 1 (fmol/cell well): 17200
  Cyclic AMP produced; 5C9 0.01 µg/mL + pTSH 3 ng/mL; Experiment 2 (fmol/cell well): 14100
  Cyclic AMP produced; 5C9 0.1 µg/mL + pTSH 3 ng/mL; Experiment 1 (fmol/cell well): 5590
  Cyclic AMP produced; 5C9 0.1 µg/mL + pTSH 3 ng/mL; Experiment 2 (fmol/cell well): 4460
  Cyclic AMP produced; 5C9 1.0 µg/mL + pTSH 3 ng/mL; Experiment 1 (mean of duplicate determinations) (fmol/cell well): 759
  Cyclic AMP produced; 5C9 1.0 µg/mL + pTSH 3 ng/mL; Experiment 2 (fmol/cell well): 657
  Cyclic AMP produced; 5C9 10 µg/mL + pTSH 3 ng/mL; Experiment 1 (fmol/cell well): 366
  Cyclic AMP produced; 5C9 10 µg/mL + pTSH 3 ng/mL; Experiment 2 (fmol/cell well): 541
  Cyclic AMP produced; 5C9 100 µg/mL + pTSH 3 ng/mL; Experiment 1 (fmol/cell well): 344
  Cyclic AMP produced; 5C9 100 µg/mL + pTSH 3 ng/mL; Experiment 2 (fmol/cell well): 286
  Cyclic AMP produced; 5C9 100 µg/mL only (no TSH); Experiment 1 (fmol/cell well): 300
  Cyclic AMP produced; 5C9 100 µg/mL only (no TSH); Experiment 2 (fmol/cell well): 208
  cyclic AMP concentration; pTSH 3 ng/mL + 1 µg/mL 5C9 (fmol/cell well): 1110
